From US20220127365A1 (DREN BIO, published 2022)

Experiments:
[1] = target: T1, CD94 homodimer on BaF3 cells (UniProt Q13241 1-179); assay: flow cytometry titration (50 nM to 0.02 nM) on BaF3 cells, anti-human AF647 secondary antibody; BaF3 cells overexpressing CD94 homodimer
T1 construct: whole, on cells
T1 sequence (looked up): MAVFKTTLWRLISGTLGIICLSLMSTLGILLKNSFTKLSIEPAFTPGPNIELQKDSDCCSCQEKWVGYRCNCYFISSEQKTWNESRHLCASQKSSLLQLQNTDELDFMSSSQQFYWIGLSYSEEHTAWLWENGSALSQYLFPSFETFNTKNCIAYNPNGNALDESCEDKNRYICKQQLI
Protocol: (§1) BaF3 cells overexpressing CD94 homodimer (top panel), CD94/NKG2A heterodimer (lower left panel), and CD94/NKG2C heterodimer (lower right panel) were incubated with unconjugated ATX-130 antibody in a dilution series from 50 nM to 0.02 nM. Secondary anti-human antibody labeled with Alexa Fluor 647 was used to detect ATX-130 binding on cells.
(§2) The affinity of the antibody clone ATX-130 on CD94 homodimer and heterodimer was also assessed by flow cytometry analysis.

[2] = target: T2, CD94/NKG2A heterodimer on BaF3 cells (UniProt Q13241 1-179; P26715 1-233, limits assumed); assay: flow cytometry titration (50 nM to 0.02 nM) on BaF3 cells, anti-human AF647 secondary antibody; BaF3 cells overexpressing CD94/NKG2A heterodimer
T2 construct: whole, on cells
T2 sequence (P26715 whole entry, one chain of several): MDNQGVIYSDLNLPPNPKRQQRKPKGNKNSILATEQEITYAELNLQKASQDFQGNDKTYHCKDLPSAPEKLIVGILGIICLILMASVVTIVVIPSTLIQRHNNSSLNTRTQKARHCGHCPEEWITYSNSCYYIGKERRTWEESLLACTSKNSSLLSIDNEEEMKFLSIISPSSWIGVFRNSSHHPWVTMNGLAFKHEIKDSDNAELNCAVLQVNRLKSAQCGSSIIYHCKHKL
Protocol: as §1, §2

[3] = target: T3, CD94/NKG2C heterodimer on BaF3 cells (UniProt Q13241 1-179; P26717 1-231, limits assumed); assay: flow cytometry titration (50 nM to 0.02 nM) on BaF3 cells, anti-human AF647 secondary antibody; BaF3 cells overexpressing CD94/NKG2C heterodimer
T3 construct: whole, on cells
T3 sequence (P26717 whole entry, one chain of several): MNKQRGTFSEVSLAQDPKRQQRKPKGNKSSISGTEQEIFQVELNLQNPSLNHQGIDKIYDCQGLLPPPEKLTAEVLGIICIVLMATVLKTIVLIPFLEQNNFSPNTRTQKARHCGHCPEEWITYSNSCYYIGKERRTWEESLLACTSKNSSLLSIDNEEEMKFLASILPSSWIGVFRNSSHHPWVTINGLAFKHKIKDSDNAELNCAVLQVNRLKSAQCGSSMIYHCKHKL
Protocol: as §1, §2

[4] = target: T4, cynomolgus CD94 (cynomolgus monkey); assay: flow cytometry on HEK293 cells overexpressing cynomolgus CD94; unconjugated antibody in a dilution series, Alexa Fluor 647 anti-human secondary antibody
T4 construct: whole, on cells; The construct expressed in HEK293 cells is not described further; also called cyno CD94; cynomolgus monkey CD94
Protocol: For human NK cell binding, PBMCs were freshly isolated from healthy donors and incubated with unconjugated antibodies in a dilution series from 100 nM to 0.046 nM. Secondary anti-human antibody labeled with Alexa Fluor 647 was used to detect binding on CD3−CD56bright NK cells. For cynomolgus CD94 binding, HEK293 cells overexpressing cynomolgus CD94 were incubated with unconjugated antibodies in a dilution series from 100 nM to 0.046 nM. Secondary anti-human antibody labeled with Alexa Fluor 647 was used to detect binding on the cells.

[5] = target: T5, human CD94 (human, UniProt Q13241 1-179); assay: HLA-E tetramer blocking on healthy-donor PBMCs, flow cytometry; competitor HLA-E tetramer
T5 construct: whole, on cells; Endogenous CD94 on primary cells (healthy-donor PBMC NK cells, CLPD-NK and T-LGLL patient cells), where it pairs with NKG2A or NKG2C; also called KLRD1; Natural killer cells antigen CD94
T5 sequence (looked up): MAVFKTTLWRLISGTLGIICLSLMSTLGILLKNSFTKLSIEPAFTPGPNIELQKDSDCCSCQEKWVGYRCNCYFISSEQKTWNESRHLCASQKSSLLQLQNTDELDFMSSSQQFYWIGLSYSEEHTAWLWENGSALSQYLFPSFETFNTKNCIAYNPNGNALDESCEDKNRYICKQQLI
Protocol: Healthy donor PBMCs were seeded in 96-well plates at a density of 100,000 cells per well, incubated with human Fc block (Biolegend) and cell viability dye (Thermo Fisher) for 30 minutes on ice and protected from light. The cells were washed once with FACS buffer (PBS with 2% IgG low FBS). anti-CD94 antibodies at EC80 concentrations were incubated with cells for 30 minutes on ice and protected from light. After incubation with the anti-CD94 antibodies, the cells were washed and incubated with HLA-E tetramer PE (Creative Biolabs), anti-CD3 pacific blue-labelled, and anti-CD56 FITC-labelled antibodies (Biolegend) for 30 minutes on ice and protected from light. The cells then received a final wash in FACS buffer before quantification on the Cytoflex (Beckman Coulter). All data acquisition and fluorescence compensation were performed using CytoFlex (Beckman Coulter, Atlanta, Ga.). Data analysis was performed using FlowJo software. NK cells were identified through gating on lymphocytes on the forward and side scatter, followed by doublet and dead cell exclusion, and gated on the CD3−CD56+ population. HLA-E expression was then quantified on the CD3−CD56+NK cell population. Percent blocking was calculated as 100−((percent HLA-E positive for anti-CD94 antibody)/(percent HLA-E positive for isotype)*100).
Healthy donor PBMCs were incubated with anti-CD94 antibodies. PE labeled HLA-E tetramer was then incubated with cells and antibody mixture and detected by flow cytometry.
Percent blocking was calculated as 100−((percent HLA-E positive for anti-CD94 antibody)/(percent HLA-E positive for isotype)*100). If an antibody blocked more than 20% of HLA-E binding, it was considered a ligand-blocking antibody.

[6] = target: T5, human CD94; assay: flow cytometry titration (100 nM to 0.046 nM) on healthy-donor PBMCs, CD3-CD56bright NK cells; column 'Affinity on human NK cells (nM)'

B1: anti-CD94 antibody ATX-130 (antibody, human IgG1, V domains shown)
VH: EVQLLESGGGLVKPGGSLRLSCAASGFTFSSYSMNWVRQAPGKGLEWVSSISTSSNFIYYADSVKGRFTISRDNAKNSLYLQMNSLRAEDTAVYYCARDLGRYYYYMDVWGKGTTVTVSS
VL: DIVMTQSPSSLSASVGDRVTITCRASQSISSWLAWYQQKPGKAPKSLIYAASSLQSGVPSKFSGSGSGTDFTLTISSLQPEDVATYYCQKYNSAPFTFGPGTKVDIK
notes: also called hATX-130
Q: With B1 as the binder, how does the EC50 [1] read?
A: The EC50 was 0.3 nM.

Q: And the EC50 [2]?
A: Its EC50 is 0.8 nM.

Q: What about the EC50 [3] of the same binder?
A: The EC50 was 1.8 nM.

Q: And the “EC50 (read off the curve)” value [4]?
A: Its value is roughly 0.7 nM.

Q: What about the “percent HLA-E blocking” value [5] of the same binder?
A: Its value is 0%.

Q: What about the EC50 [6] of the same binder?
A: Its EC50 is 0.6 nM.
